From the supplement of paper PMC7877785 come the findings set out here.

This data set can be described thus: self-splicing fitness, log relative to wild type (ln ratio); higher = more splicing; Tetrahymena group I intron in knt gene, E. coli kanamycin selection, DiMSum; sequences stand for … in CUCUCU…GGAGGGAAAAGUUAUCAGGCAUGCACCUGGUAGCUAGUCUUUAAACCAAUAGAUUGCAUCGGUUUAAAAGGCAAGACCGUCAAAUUGCGGGAAAGGGGUCAACAGCCGUUCAGUACCAAGUCUCAGGGGAAACUUUGAGAUGGCCUUGCAAAGGGUAUGGUAAUAAGCUGACGGACAUGGUCCUAACCACGCAGCCAAGUCCUAAGUCAACAGAUCUUCUGUUGAUAUGGAUGCAGUUCACAGACUAAAUGUCGGUCGGGGAAGAUGUAUUCUUCUCAUAAGAUAUAGUCGGACCUCUCCUUAAUGGGAGCUAGCGGAUGAAGUGAUGCAACACUGGAGCCGCUGGGAACUAAUUUGUAUGCGAAAGUAUAUUGAUUAGUUUUGGAGUACUCGUGGUCG
The method, boiled down:
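Fitness was computed with DiMSum as the error-weighted combination of replicate fold changes, kanamycin versus none, each normalised to wild type. The library randomised all eight intron nucleotides of the P1ex region, with the intron placed in the knt kanamycin-resistance gene on pET-22b(+) in E. coli BL21(DE3). Six replicate transformations were grown overnight at 37°C or 30°C on LB agar with or without 25 μg/mL kanamycin, plus 100 μg/mL carbenicillin, 50 μM IPTG and 0.2% rhamnose. Pooled colonies were amplicon-sequenced on an Illumina HiSeq 2500.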

± gives the uncertainty stated by the source.

As to CAACAGCAAUAUUACGACUA, the “self-splicing fitness (ln)” value runs as follows: (30 °C) -1.35 ± 0.1; (37 °C) -0.653 ± 0.092.
The corresponding values for CAACAGCAAUAUUACGAGGA are -3.65 ± 0.25 and -0.828 ± 0.1.
The corresponding values for CAACAGCAAUAUUACGAUCA are -1.6 ± 0.097 and -1.33 ± 0.12.
The corresponding values for CAACAGCAAUAUUACGCAAU are -2.87 ± 0.16 and -1.87 ± 0.15.
In the case of CAACAGCAAUAUUACGCGAU, the “self-splicing fitness (ln)” value runs as follows: (30 °C) -5.11 ± 0.45; (37 °C) -2.63 ± 0.23.
In the same order, the values of CAACAGCAAUAUUACGCUCA are -1.15 ± 0.096 and -1.4 ± 0.12.
In the same order, the values of CAACAGCAAUAUUACGGAAU are -2.96 ± 0.14 and -3.05 ± 0.2.
With CAACAGCAAUAUUACGGAGG, the “self-splicing fitness (ln)” value runs as follows: (30 °C) -1.33 ± 0.048; (37 °C) -0.382 ± 0.065.
The corresponding values for CAACAGCAAUAUUACGGAUA are -3.38 ± 0.17 and -2.14 ± 0.15.
In the same order, the values of CAACAGCAAUAUUACGGCAA are -1.45 ± 0.13 and -1.28 ± 0.12.
Consider CAACAGCAAUAUUACGGUGA, for which the “self-splicing fitness (ln)” value is -1.58 ± 0.071 (30 °C) and -0.727 ± 0.084 (37 °C).
In the same order, the values of CAACAGCAAUAUUACGGUGU are -3.34 ± 0.12 and -2.55 ± 0.14.
In the same order, the values of CAACAGCAAUAUUACGGUUU are -0.644 ± 0.045 and 0.183 ± 0.056.
In the same order, the values of CAACAGCAAUAUUACGUACA are -2.28 ± 0.11 and -1.12 ± 0.093.
Turning to CAACAGCAAUAUUACGUCCC, the “self-splicing fitness (ln)” value was -1.72 ± 0.14 (30 °C) and -1.46 ± 0.2 (37 °C).
In the same order, the values of CAACAGCAAUAUUACGUGUC are -2.82 ± 0.13 and -2.04 ± 0.14.
In the same order, the values of CAAGAGCAAUAUUACGAAGU are -3.86 ± 0.34 and -2.3 ± 0.33.
As to CAAGAGCAAUAUUACGAAUU, the “self-splicing fitness (ln)” value reads like this: (30 °C) -3.25 ± 0.17; (37 °C) -2.64 ± 0.32.
In the same order, the values of CAAGAGCAAUAUUACGACCG are -0.953 ± 0.13 and -0.89 ± 0.14.
In the same order, the values of CAAGAGCAAUAUUACGACGA are -3.01 ± 0.2 and -1.77 ± 0.23.
In the same order, the values of CAAGAGCAAUAUUACGACUU are -2.96 ± 0.12 and -1.46 ± 0.12.
On to CAAGAGCAAUAUUACGAUGA, for which the “self-splicing fitness (ln)” value (30 °C) is -3.62 ± 0.33 and the “self-splicing fitness (ln)” value (37 °C) was -0.971 ± 0.17.
The corresponding values for CAAGAGCAAUAUUACGCAAA are -2.46 ± 0.24 and -2.56 ± 0.41.
In the same order, the values of CAAGAGCAAUAUUACGCAAG are -3.06 ± 0.17 and -1.99 ± 0.17.
The corresponding values for CAAGAGCAAUAUUACGCAAU are -3.31 ± 0.44 and -1.52 ± 0.22.
Take CAAGAGCAAUAUUACGCACA: the “self-splicing fitness (ln)” value runs as follows: (30 °C) -2.72 ± 0.36; (37 °C) -1.53 ± 0.43.
In the same order, the values of CAAGAGCAAUAUUACGCCUG are -1.47 ± 0.21 and -2.17 ± 0.32.
In the case of CAAGAGCAAUAUUACGCGCC, the “self-splicing fitness (ln)” value (30 °C) is -3.44 ± 0.37 and the “self-splicing fitness (ln)” value (37 °C) was -1.74 ± 0.42.
In the same order, the values of CAAGAGCAAUAUUACGCGUC are -2.16 ± 0.17 and -2.23 ± 0.23.
On to CAAGAGCAAUAUUACGCGUG, for which the “self-splicing fitness (ln)” value by setting is: (30 °C) -4.13 ± 0.3; (37 °C) -1.6 ± 0.16.
As to CAAGAGCAAUAUUACGCUUU, the “self-splicing fitness (ln)” value was -3.3 ± 0.19 (30 °C) and -2.58 ± 0.18 (37 °C).
The corresponding values for CAAGAGCAAUAUUACGGAAA are -2.9 ± 0.22 and -2.82 ± 0.22.
In the same order, the values of CAAGAGCAAUAUUACGGAGU are -3.12 ± 0.18 and -2.55 ± 0.22.
In the case of CAAGAGCAAUAUUACGGCCG, the “self-splicing fitness (ln)” value runs as follows: (30 °C) -0.899 ± 0.13; (37 °C) -0.536 ± 0.17.
For CAAGAGCAAUAUUACGGGCG, the “self-splicing fitness (ln)” value runs as follows: (30 °C) -0.815 ± 0.1; (37 °C) -0.188 ± 0.12.
In the same order, the values of CAAGAGCAAUAUUACGGGGA are -3.21 ± 0.32 and -2.67 ± 0.28.
In the same order, the values of CAAGAGCAAUAUUACGGUCA are -2.4 ± 0.19 and -2.45 ± 0.23.
In the same order, the values of CAAGAGCAAUAUUACGUACG are -0.91 ± 0.084 and 0.0935 ± 0.11.
Consider CAAGAGCAAUAUUACGUAGA, for which the “self-splicing fitness (ln)” value is, setting by setting: (30 °C) -3.55 ± 0.17; (37 °C) -2.76 ± 0.24.
On to CAAGAGCAAUAUUACGUCCG, for which the “self-splicing fitness (ln)” value (30 °C) is -1.66 ± 0.087 and the “self-splicing fitness (ln)” value (37 °C) is -0.696 ± 0.13.
On to CAAGAGCAAUAUUACGUGAU, for which the “self-splicing fitness (ln)” value (30 °C) was -3.6 ± 0.21 and the “self-splicing fitness (ln)” value (37 °C) is -2.34 ± 0.22.
As for CAAGAGCAAUAUUACGUGGA, the “self-splicing fitness (ln)” value (30 °C) is -3.87 ± 0.28 and the “self-splicing fitness (ln)” value (37 °C) was -2.43 ± 0.15.
In the same order, the values of CAAGAGCAAUAUUACGUUAC are -2.55 ± 0.12 and -2.71 ± 0.23.
In the same order, the values of CAAUAGCAAUAUUACGAAGA are -3.96 ± 0.39 and -1.31 ± 0.2.
The corresponding values for CAAUAGCAAUAUUACGACGA are -2.18 ± 0.22 and -1.24 ± 0.14.
CAAUAGCAAUAUUACGAGUA: the “self-splicing fitness (ln)” value runs as follows: (30 °C) -2.31 ± 0.21; (37 °C) -2.38 ± 0.2.
Consider CAAUAGCAAUAUUACGAGUU, for which the “self-splicing fitness (ln)” value is -3.64 ± 0.2 (30 °C) and -2.19 ± 0.2 (37 °C).
In the same order, the values of CAAUAGCAAUAUUACGAUAG are -0.926 ± 0.069 and -0.00227 ± 0.1.
As to CAAUAGCAAUAUUACGAUCC, where the note is “30 °C”, the “self-splicing fitness (ln)” value is -2.68 ± 0.46.
As for CAAUAGCAAUAUUACGCCUG, the “self-splicing fitness (ln)” value reads like this: (30 °C) -0.752 ± 0.075; (37 °C) 0.366 ± 0.088.
The corresponding values for CAAUAGCAAUAUUACGCGGG are -3.11 ± 0.16 and -1.75 ± 0.12.
In the same order, the values of CAAUAGCAAUAUUACGCGUC are -4.09 ± 0.25 and -3 ± 0.22.
The corresponding values for CAAUAGCAAUAUUACGCUUU are -4.34 ± 0.27 and -2.2 ± 0.19.
Turning to CAAUAGCAAUAUUACGGUCC, the “self-splicing fitness (ln)” value reads like this: (30 °C) -3.21 ± 0.38; (37 °C) -2.34 ± 0.39.
In the same order, the values of CAAUAGCAAUAUUACGGUUA are -1.4 ± 0.12 and -1.24 ± 0.1.
In the same order, the values of CAAUAGCAAUAUUACGUAUU are -3.25 ± 0.21 and -2.65 ± 0.18.
The corresponding values for CAAUAGCAAUAUUACGUCAU are -3.6 ± 0.14 and -2.88 ± 0.17.
As to CAAUAGCAAUAUUACGUCGU, the “self-splicing fitness (ln)” value by setting is: (30 °C) -3.95 ± 0.23; (37 °C) -2.49 ± 0.19.
In the same order, the values of CAAUAGCAAUAUUACGUGGU are -3.82 ± 0.17 and -2.53 ± 0.18.
In the same order, the values of CACAAGCAAUAUUACGAACA are -2.61 ± 0.18 and -1.72 ± 0.12.
In the same order, the values of CACAAGCAAUAUUACGAGCU are -3.48 ± 0.24 and -3.29 ± 0.3.
For CACAAGCAAUAUUACGAGGG, the “self-splicing fitness (ln)” value reads like this: (30 °C) -2.28 ± 0.12; (37 °C) -2.48 ± 0.14.
As for CACAAGCAAUAUUACGAUUU, the “self-splicing fitness (ln)” value was -4.17 ± 0.18 (30 °C) and -2.56 ± 0.15 (37 °C).
In the same order, the values of CACAAGCAAUAUUACGCACU are -2.4 ± 0.13 and -1.33 ± 0.11.
In the same order, the values of CACAAGCAAUAUUACGCAGG are -2.65 ± 0.15 and -1.01 ± 0.13.
In the same order, the values of CACAAGCAAUAUUACGCAGU are -3.4 ± 0.2 and -2.37 ± 0.16.
Turning to CACAAGCAAUAUUACGCAUC, the “self-splicing fitness (ln)” value runs as follows: (30 °C) -3.19 ± 0.18; (37 °C) -2.29 ± 0.18.
As for CACAAGCAAUAUUACGCAUU, the “self-splicing fitness (ln)” value was -2.9 ± 0.096 (30 °C) and -2.5 ± 0.14 (37 °C).
As to CACAAGCAAUAUUACGCGCG, the “self-splicing fitness (ln)” value is -0.772 ± 0.066 (30 °C) and -0.607 ± 0.071 (37 °C).
The corresponding values for CACAAGCAAUAUUACGCUAA are -2.58 ± 0.18 and -1.82 ± 0.16.
The corresponding values for CACAAGCAAUAUUACGCUCC are -1.93 ± 0.16 and -1.66 ± 0.22.
In the same order, the values of CACAAGCAAUAUUACGGGAA are -3.21 ± 0.16 and -2.79 ± 0.17.
For CACAAGCAAUAUUACGUAAG, the “self-splicing fitness (ln)” value is, setting by setting: (30 °C) -0.372 ± 0.047; (37 °C) 0.157 ± 0.065.
The corresponding values for CACAAGCAAUAUUACGUAGA are -1.83 ± 0.081 and -1.73 ± 0.11.
In the same order, the values of CACAAGCAAUAUUACGUGGG are -3.94 ± 0.16 and -2.42 ± 0.12.
